Publication PMC12469859 (Structure (London, England : 1993), 2025)

T1: Neisseria gonorrhoeae BamE (NgBamE) with a C-terminal 10x histidine tag (N. gonorrhoeae FA1090, UniProt Q5F5Y8 18-125)
T1 sequence (looked up): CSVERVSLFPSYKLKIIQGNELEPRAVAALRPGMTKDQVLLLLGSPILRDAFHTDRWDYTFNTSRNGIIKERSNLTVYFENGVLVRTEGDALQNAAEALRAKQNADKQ

B1: Neisseria gonorrhoeae BamA (NgBamA) (natural protein)
chain: FTIQDIRVEGLQRTEPSTVFNYLPVKVGDTYNDTHGSAIIKSLYATGFFDDVRVETADGQLLLTVIERPTIGSLNITGAKMLQNDAIKKNLESFGLAQSQYFNQATLNQAVAGLKEEYLGRGKLNIQITPKVTKLARNRVDIDITIDEGKSAKITDIEFEGNQVYSDRKLMRQMSLTEGGIWTWLTRSDRFDRQKFAQDMEKVTDFYQNNGYFDFRILDTDIQTNEDKTRQTIKITVHEGGRFRWGKVSIEGDTNEVPKAELEKLLTMKPGKWYERQQMTAVLGEIQNRMGSAGYAYSEISVQPLPNAGTKTVDFVLHIEPGRKIYVNEIHITGNNKTRDEVVRRELRQMESAPYDTSKLQRSKERVELLGYFDNVQFDAVPLAGTPDKVDLNMSLTERSTGSLDLSAGWVQDTGLVMSAGVSQDNLFGTGKSAALRASRSKTTLNGSLSFTDPYFTADGVSLGYDIYGKAFDPRKASTSVKQYKTTTAGGGVRMGIPVTEYDRVNFGLAAEHLTVNTYNKAPKRYADFIRKYGKTDGADGSFKGLLYKGTVGWGRNKTDSASWPTRGYLTGVNAEIALPGSKLQYYSATHNQTWFFPLSKTFTLMLGGEVGIAGGYGRTKEIPFFENFYGGGLGSVRGYESGTLGPKVYDEYGEKISYGGNKKANVSAELLFPMPGAKDARTVRLSLFADAGSVWDGRTYTAAENGNNKSVYSENAHKSTFTNELRYSAGGAVTWLSPLGPMKFSYAYPLKKKPEDEIQRFQFQLGTTF
B2: Neisseria gonorrhoeae BamC (NgBamC), with the HG2 domain (natural protein, N. gonorrhoeae FA1090, UniProt A0ACH0F7W2 42-398, looked up)
chain: CSGSKTEQPKLDYQSRSHRLIKLEVPPDLNNPDQGNLYRLPAGSGAVRASDLEKRRTPAVQQPADAEVLKSVKGVRLERDGSQRWLVVDGKSPAEIWPLLKAFWQENGFDIESEEPAIGQMETEWAENRAKIPQDSLRRLFDTVGLGGIYSTGERDKFIVRIEQGKNGVSDIFFAHKAMKEVYGDKNKDTTMWQPSASDPNLEAAFLTRFMQYLGVDGRQAENALAKKPTLPAANEMARIEGKSLIVFGDYGRNWRRTGLALDRIGLTVVGQNTERHAFLVQKAPNESNAVTEQKPGLFKRLLGKGKAEKPAEQPELIVYAEPVADGSRIVLLNKDGSAYAGKDASALLGKLHSELR
B3: Neisseria gonorrhoeae BamD (NgBamD) (natural protein, N. gonorrhoeae FA1090, UniProt Q50985 17-267, looked up)
chain: CATQGTADKDAQITQDWSVEKLYAEAQDELNSSNYTRAVKLYEILESRFPTSRHARQSQLDTAYAYYKDDEKDKALAAIERFRRLHPQHPNMDYALYLRGLVLFNEDQSFLNKLASQDWSDRDPKANREAYQAFAELVQRFPNSKYAADATARMVKLVDALGGNEMSVARYYMKRGAYIAAANRAKKIIGSYQNTRYVEESLAILELAYKKLDKPQLAADTRRVLETNFPKSPFLTHAWQPDDMPWWRYWH

Target: T1, Neisseria gonorrhoeae BamE (NgBamE) …
Experiment: co-purification

Which “stoichiometry N” value does the source give for B1 here?
The value was 1.

B2 was tested. Which “stoichiometry N” value did it give?
The value was 1.

With B3 as the binder, how does the “stoichiometry N” value read?
Its value is 1.
